Assay results taken from PMC7781312 (bioRxiv, 2021).
Non-standard residues stand in square brackets, D forms with d. Primed or numbered codes have the meaning given here. No end group written: not given here. PEG6′ = PEG spacer between stem peptide and Lys-biotin; Biotin′ = not defined here

Tests used:
[1] = target: T1, biotinylated mouse hepatitis virus S stem helix peptide (Murine hepatitis virus A59 (P11224), UniProt P11224); assay: BLI
T1 chain: DFKEELDKWFKNQTS[PEG6′]K-{Biotin′}

[2] = target: T2, biotinylated HKU4 S stem helix peptide (Bat coronavirus HKU4 (A3EX94), UniProt A3EX94); assay: BLI
T2 chain: DFKDELEEFFKNVTS[PEG6′]K-{Biotin′}

[3] = target: T3, biotinylated HKU5 S stem helix peptide (Bat coronavirus HKU5 (A3EXD0), UniProt A3EXD0); assay: BLI
T3 chain: DFKEELEEFFKNVSS[PEG6′]K-{Biotin′}

[4] = target: T4, biotinylated MERS-CoV S stem helix peptide (MERS-CoV EMC/2012 (AFS88936), UniProt K0BRG7); assay: BLI
T4 chain: DFQDELDEFFKNVST[PEG6′]K-{Biotin′}

[5] = target: T5, biotinylated SARS-CoV/SARS-CoV-2 S stem helix peptide (SARS-CoV-2 / SARS-CoV, identical …, UniProt P0DTC2); assay: BLI
T5 chain: SFKEELDKYFKNHTS[PEG6′]K-{Biotin′}

[6] = target: T6, biotinylated OC43 S stem helix peptide (HCoV-OC43 (Q696P8), UniProt Q696P8); assay: BLI
T6 chain: DFKEELDQWFKNQTS[PEG6′]K-{Biotin′}

[7] = target: T7, MERS-CoV S stem helix peptide, residues 1230-1240 (crystallised) (MERS-CoV (EMC/2012 numbering), UniProt K9N5Q8); assay: crystal structure
T7 chain: DFQDELDEFFK

[8] = target: T8, MERS-CoV S stem helix peptide, residues 1230-1244 (crystallised) (MERS-CoV, UniProt K9N5Q8); assay: crystal structure
T8 chain: DFQDELDEFFKNVST

[9] = target: T9, SARS-CoV/SARS-CoV-2 S stem helix peptide (crystallised) (SARS-CoV-2 / SARS-CoV, identical …, UniProt P0DTC2); assay: crystal structure
T9 chain: SFKEELDKYFKNHTS

[10] = target: T10, HKU4 S stem helix peptide, residues 1231-1245 (crystallised) (bat coronavirus HKU4, UniProt A3EX94); assay: crystal structure
T10 chain: DFKDELEEFFKNVTS

Measured: binding result

B1: B6 monoclonal antibody (recombinant IgG with human constant regions) (antibody, V domains shown)
VH: EVQLQQSGPVLVKPGASVRMSCKASGYTITDYYLNWVKQSHGKSLEWLGVLNPYSGGSLYSQTFKGKATLTVDRSSSTAYLELNSLTSEDSAVYYCARQLGRGNGLDYWGQGTSVTVSS
VL: NIMMTQSPSSLAVSAGEKVTMSCKSSQSVLHSSDQKNYLAWYQQKPGQSPKLLIYWASTRESGVPDRFTGSGSGTDFTLTISSVQAEDLAVYFCHQYLSSYTFGGGTKLEIK
binds: [1] | [2] | [3] | [4] | [5] | [6]

B2: B6 Fab fragment (Fab, V domains shown)
VH: B1 VH
VL: B1 VL
binds: all assays above
